T1: HA-tagged Mst2, full-length (UniProt Q13188 1-491)
T1 sequence (looked up): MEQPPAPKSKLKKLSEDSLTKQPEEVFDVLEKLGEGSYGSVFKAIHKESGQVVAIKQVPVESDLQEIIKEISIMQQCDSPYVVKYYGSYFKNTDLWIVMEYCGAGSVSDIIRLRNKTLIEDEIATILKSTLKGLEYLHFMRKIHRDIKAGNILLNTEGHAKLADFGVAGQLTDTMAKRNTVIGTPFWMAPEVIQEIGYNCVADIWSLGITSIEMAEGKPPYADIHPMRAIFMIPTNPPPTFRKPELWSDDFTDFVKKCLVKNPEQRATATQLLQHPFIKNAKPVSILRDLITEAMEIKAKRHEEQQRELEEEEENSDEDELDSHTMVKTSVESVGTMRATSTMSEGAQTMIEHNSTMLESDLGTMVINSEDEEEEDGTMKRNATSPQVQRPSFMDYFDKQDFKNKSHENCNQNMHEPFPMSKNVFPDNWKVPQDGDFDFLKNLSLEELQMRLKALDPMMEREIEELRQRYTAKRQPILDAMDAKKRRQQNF


Key:
[1] = target: Mst2 SARAH domain with a C-terminal Cys, AEDANS-labelled (UniProt Q13188); experiment: FRET or BRET
[2] = target: Mst1 SARAH domain with a C-terminal Cys, AEDANS-labelled (UniProt Q13043); experiment: FRET or BRET
[3] = target: T1, HA-tagged Mst2, full-length; experiment: co-IP

Kd [1] [µM] | Molecule | also measured
0.72 | Mst1 SARAH domain, unlabeled (from UniProt Q13043 433-480) (domain or fragment) | –
4.3 | Mst2-LW SARAH domain, unlabeled (from UniProt Q13188 437-484) (domain or fragment) | –
– | Mst1 SARAH domain with a C-terminal Cys, AEDANS-labelled (from UniProt Q13043 433-480) (domain or fragment) | Kd [2]: 6.5 µM
– | Myc-tagged Mst1, full-length (1-487) (natural protein, UniProt Q13043 1-487, looked up) METVQLRNPPRRQLKKLDEDSLTKQPEEVFDVLEKLGEGSYGSVYKAIHKETGQIVAIKQVPVESDLQEIIKEISIMQQCDSPHVVKYYGSYFKNTDLWIVMEYCGAGSVSDIIRLRNKTLTEDEIATILQSTLKGLEYLHFMRKIHRDIKAGNILLNTEGHAKLADFGVAGQLTDTMAKRNTVIGTPFWMAPEVIQEIGYNCVADIWSLGITAIEMAEGKPPYADIHPMRAIFMIPTNPPPTFRKPELWSDNFTDFVKQCLVKSPEQRATATQLLQHPFVRSAKGVSILRDLINEAMDVKLKRQESQQREVDQDDEENSEEDEMDSGTMVRAVGDEMGTVRVASTMTDGANTMIEHDDTLPSQLGTMVINAEDEEEEGTMKRRDETMQPAKPSFLEYFEQKEKENQINSFGKSVPGPLKNSSDWKIPQDGDYEFLKSWTVEDLQKRLLALDPMMEQEIEEIRQKYQSKRQPILDAIEAKKRRQQNF | level of heterodimers relative to homodimers [3]: ~60%

— article PMC4915977 (Current biology : CB, 2016)
